# Results reported in patent publication US20060003939.
# Experiments:
# [1] = target: His-DIAP1 21-4S mutant (RING domain mutant), in vitro translated from diap1 21-4S pET14b (UniProt Q24306)
# [2] = target: 35S-methionine labeled wild type DIAP1, in vitro translated from diap1-pET14b (UniProt Q24306)
# Sequence of 35S-methionine labeled wild type DIAP1, in vitro translated from diap1-pET14b (Q24306 whole entry): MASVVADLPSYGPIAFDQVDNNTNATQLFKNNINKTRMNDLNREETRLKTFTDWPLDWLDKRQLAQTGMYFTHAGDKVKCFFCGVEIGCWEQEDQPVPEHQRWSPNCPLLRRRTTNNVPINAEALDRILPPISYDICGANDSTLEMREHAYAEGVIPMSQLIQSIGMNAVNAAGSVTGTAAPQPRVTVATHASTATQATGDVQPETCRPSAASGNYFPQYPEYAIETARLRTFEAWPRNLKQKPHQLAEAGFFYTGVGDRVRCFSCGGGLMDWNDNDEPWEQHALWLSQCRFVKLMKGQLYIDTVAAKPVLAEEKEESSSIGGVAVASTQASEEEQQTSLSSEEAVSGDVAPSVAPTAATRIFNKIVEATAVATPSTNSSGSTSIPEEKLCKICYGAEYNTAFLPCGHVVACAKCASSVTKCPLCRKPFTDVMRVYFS
# Sequence of His-DIAP1 21-4S mutant (RING domain mutant), in vitro translated from diap1 21-4S pET14b (Q24306 other isoform, or with tags, fused parts or gaps mutant): as the sequence (Q24306 whole entry) above, with C406Y counted along it
substance,measurement,setting,value
His-UBCD1,in vitro ubiquitination reaction,[1],"whereas the His-DIAP1^21-4S mutant (RING domain mutant) did not (lane 7), in the presence of ubcD1"
same,in vitro ubiquitination reaction,[2],Wild-type DIAP1 (lane 4) showed marked ubiquitination
